# In paper PMC4010543:
# B1: PilE: pglC null (protein)
# parent chain: MNTLQKGFTLIELMIVIAIVGILAAVALPAYQDYTARAQVSEAILLAEGQKSAVTEYYLNHGKWPENNTSAGVASPPSDIKGKYVKEVEVKNGVVTATMLSSGVNNEIKGKKLSLWARRENGSVKWFCGQPVTRTDDDTVADAKDGKEIDTKHLPSTCRDNFDAK
# B2: PilE: pglE ON (trisaccharide) in 2xpilE and 3xpilE (protein)
# parent chain: B1 parent chain
# B3: PilE: pglE ON pilF (trisaccharide) (protein)
# parent chain: B1 parent chain
# What was measured:
# [1] = TEPC-15 immunoblot, whole cell lysates; conditions: control: wild-type pgl (disaccharide Ac-Gal-diNAcBac), same pilE copy number
# [2] = TEPC-15 immunoblot, pilF mutant lysates; conditions: glycan gained; control: pglC pilF (no glycan)
protein,measurement,setting,value
B1,other: phosphocholine modification of PilE,[1]; glycan lost,increases
B2,other: phosphocholine modification of PilE,[1]; glycan changed form,decreases
B3,other: phosphocholine modification of PilE,[2],no change
